Assay results reported in PMC9482650, “Quantitative fragmentomics allow affinity mapping of interactomes” (Nature Communications, 2022).

T1: LIN7C, Q9NUP9
T1 sequence (Q9NUP9 88-185, limits assumed, looked up): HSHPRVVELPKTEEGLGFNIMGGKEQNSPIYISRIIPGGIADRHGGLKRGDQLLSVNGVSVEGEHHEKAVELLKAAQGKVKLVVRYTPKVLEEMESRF

T2: ARHGEF11, O15085
T2 sequence (O15085 42-136, limits assumed, looked up): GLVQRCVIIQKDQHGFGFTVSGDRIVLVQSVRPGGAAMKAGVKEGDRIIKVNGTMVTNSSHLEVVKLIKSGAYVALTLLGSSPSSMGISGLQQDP

T3: APBA2_1, Q99767
T3 sequence (Q99767 563-664, limits assumed, looked up): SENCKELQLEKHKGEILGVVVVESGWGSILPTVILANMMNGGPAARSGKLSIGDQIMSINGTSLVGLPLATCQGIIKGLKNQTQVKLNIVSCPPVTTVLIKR

T4: SNTG1, Q9NSN8
T4 sequence (Q9NSN8 52-150, limits assumed, looked up): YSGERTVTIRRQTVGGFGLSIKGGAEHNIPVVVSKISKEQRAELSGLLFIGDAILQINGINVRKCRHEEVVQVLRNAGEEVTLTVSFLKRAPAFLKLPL

T5: RHPN1, Q8TCX5
T5 sequence (Q8TCX5 508-602, limits assumed, looked up): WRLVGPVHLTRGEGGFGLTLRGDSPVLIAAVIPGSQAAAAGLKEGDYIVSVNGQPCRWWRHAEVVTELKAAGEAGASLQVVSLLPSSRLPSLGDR

T6: TJP3_3, O95049
T6 sequence (O95049 375-456, limits assumed, looked up): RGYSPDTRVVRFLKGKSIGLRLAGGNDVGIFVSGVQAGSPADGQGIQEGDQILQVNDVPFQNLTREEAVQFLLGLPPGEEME

T7: NHERF3_1, Q5T2W1
T7 sequence (Q5T2W1 4-100, limits assumed, looked up): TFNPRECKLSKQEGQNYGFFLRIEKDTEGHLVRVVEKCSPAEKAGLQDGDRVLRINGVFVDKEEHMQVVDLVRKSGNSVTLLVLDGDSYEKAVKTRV

T8: GRIP1_2, Q9Y3R0
T8 sequence (Q9Y3R0 145-248, limits assumed, looked up): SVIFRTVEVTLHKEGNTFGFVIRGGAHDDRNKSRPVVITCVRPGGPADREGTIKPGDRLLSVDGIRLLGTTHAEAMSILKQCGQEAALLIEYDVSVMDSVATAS

T9: GRIP1_3, Q9Y3R0
T9 sequence (Q9Y3R0 247-346, limits assumed, looked up): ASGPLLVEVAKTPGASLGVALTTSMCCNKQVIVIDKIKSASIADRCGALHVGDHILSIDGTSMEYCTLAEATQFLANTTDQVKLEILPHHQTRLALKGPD

T10: SYNJ2BP, P57105
T10 sequence (P57105 8-110, limits assumed, looked up): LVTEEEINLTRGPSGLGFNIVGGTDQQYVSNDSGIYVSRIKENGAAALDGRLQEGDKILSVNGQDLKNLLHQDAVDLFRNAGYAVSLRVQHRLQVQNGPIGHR

T11: NHERF3_3, Q5T2W1
T11 sequence (Q5T2W1 238-333, limits assumed, looked up): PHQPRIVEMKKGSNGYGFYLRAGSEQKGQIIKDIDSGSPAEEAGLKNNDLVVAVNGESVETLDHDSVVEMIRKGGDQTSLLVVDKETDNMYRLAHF

T12: RADIL, Q96JH8
T12 sequence (Q96JH8 971-1071, limits assumed, looked up): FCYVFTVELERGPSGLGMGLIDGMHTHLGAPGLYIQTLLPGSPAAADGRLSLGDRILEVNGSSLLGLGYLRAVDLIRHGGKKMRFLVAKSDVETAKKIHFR


Assays:
Assay in all cases: holdup assay
Parameters in all cases: key: below the threshold = too weak to quantify, mostly under pKd 3.1 to 4
Details in all cases: plain residues with an end cap or a label only (N-terminal biotin on a linker: ado-ado)
[1] = biological target: Inadl_2, Q8NI35
Sequence of Inadl_2, Q8NI35 (Q8NI35 238-335): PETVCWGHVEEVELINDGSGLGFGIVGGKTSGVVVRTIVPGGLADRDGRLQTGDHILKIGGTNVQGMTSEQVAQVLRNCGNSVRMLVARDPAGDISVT

[2] = biological target: T1, LIN7C, Q9NUP9
[3] = biological target: T2, ARHGEF11, O15085
[4] = biological target: T3, APBA2_1, Q99767
[5] = biological target: GRID2IP_1, A4D2P6
Sequence of GRID2IP_1, A4D2P6 (A4D2P6 1-87): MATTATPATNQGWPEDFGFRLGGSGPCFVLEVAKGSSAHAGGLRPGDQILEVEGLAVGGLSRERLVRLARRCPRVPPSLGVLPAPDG

[6] = biological target: T4, SNTG1, Q9NSN8
[7] = biological target: T5, RHPN1, Q8TCX5
[8] = biological target: HTRA1, Q92743
Sequence of HTRA1, Q92743 (Q92743 360-477): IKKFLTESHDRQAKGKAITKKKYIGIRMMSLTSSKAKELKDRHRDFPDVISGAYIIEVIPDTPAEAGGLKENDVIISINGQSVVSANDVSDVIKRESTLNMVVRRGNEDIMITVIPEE

[9] = biological target: T6, TJP3_3, O95049
[10] = biological target: ARHGEF12, Q9NZN5-2
Sequence of ARHGEF12, Q9NZN5-2 (Q9NZN5 other isoform, or with tags, fused parts or gaps): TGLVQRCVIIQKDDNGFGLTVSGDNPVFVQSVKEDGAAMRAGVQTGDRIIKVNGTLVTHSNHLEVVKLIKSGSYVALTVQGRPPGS

[11] = biological target: TJP1_2, Q07157
Sequence of TJP1_2, Q07157 (Q07157 181-274): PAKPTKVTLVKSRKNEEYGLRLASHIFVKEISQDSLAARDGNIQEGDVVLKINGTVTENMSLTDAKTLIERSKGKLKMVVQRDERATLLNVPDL

[12] = biological target: T7, NHERF3_1, Q5T2W1
[13] = biological target: Inadl_10, Q8NI35
Sequence of Inadl_10, Q8NI35 (Q8NI35 1673-1763): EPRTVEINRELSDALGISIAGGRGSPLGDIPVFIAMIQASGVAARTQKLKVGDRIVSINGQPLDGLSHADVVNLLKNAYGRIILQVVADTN

[14] = biological target: T8, GRIP1_2, Q9Y3R0
[15] = biological target: DLG2_2, Q15700
[16] = biological target: GRIP2_6, Q9C0E4
Sequence of GRIP2_6, Q9C0E4 (Q9C0E4 648-740): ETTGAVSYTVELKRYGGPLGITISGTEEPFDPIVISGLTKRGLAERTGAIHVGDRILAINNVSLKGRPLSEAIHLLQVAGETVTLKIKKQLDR

[17] = biological target: PDZRN4_1, Q6ZMN7
Sequence of PDZRN4_1, Q6ZMN7 (Q6ZMN7 213-318): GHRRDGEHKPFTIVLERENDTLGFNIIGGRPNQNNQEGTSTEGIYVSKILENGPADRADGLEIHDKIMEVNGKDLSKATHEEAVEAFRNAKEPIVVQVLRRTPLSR

[18] = biological target: T9, GRIP1_3, Q9Y3R0
[19] = biological target: DLG2_3, Q15700
[20] = biological target: T10, SYNJ2BP, P57105
[21] = biological target: IL16_4, Q14005
Sequence of IL16_4, Q14005 (Q14005 1229-1329): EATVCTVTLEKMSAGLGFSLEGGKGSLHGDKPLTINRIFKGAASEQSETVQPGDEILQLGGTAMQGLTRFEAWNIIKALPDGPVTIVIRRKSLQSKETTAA

[22] = biological target: CASK, O14936
Sequence of CASK, O14936 (O14936 487-570): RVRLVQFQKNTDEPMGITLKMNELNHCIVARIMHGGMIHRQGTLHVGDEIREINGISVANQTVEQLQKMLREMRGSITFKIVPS

[23] = biological target: T11, NHERF3_3, Q5T2W1
[24] = biological target: T12, RADIL, Q96JH8
[25] = biological target: LNX1_2, Q8TBB1
Sequence of LNX1_2, Q8TBB1 (Q8TBB1 371-470): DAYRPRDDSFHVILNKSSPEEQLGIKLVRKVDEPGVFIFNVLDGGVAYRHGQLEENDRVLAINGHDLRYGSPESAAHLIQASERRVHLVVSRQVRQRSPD

[26] = biological target: MAGI1_1, Q96QZ7
Sequence of MAGI1_1, Q96QZ7 (Q96QZ7 1-106): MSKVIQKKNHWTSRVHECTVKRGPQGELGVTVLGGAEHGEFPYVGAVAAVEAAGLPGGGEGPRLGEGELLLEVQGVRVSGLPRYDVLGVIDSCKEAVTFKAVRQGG

| Binder | pKd [1] | pKd [2] | pKd [3] | pKd [4] | pKd [5] | pKd [6] | pKd [7] | pKd [8] | pKd [9] | pKd [10] | pKd [11] | pKd [12] | pKd [13] | pKd [14] | pKd [15] | pKd [16] | pKd [17] | pKd [18] | pKd [19] | pKd [20] | other results |
| --- | --- | --- | --- | --- | --- | --- | --- | --- | --- | --- | --- | --- | --- | --- | --- | --- | --- | --- | --- | --- | --- |
| GDGLDDEIAV [NOS1AP, O75052] | 3.99 | below the threshold | 4.37 | below the threshold | below the threshold | below the threshold | below the threshold | 4.68 | below the threshold | below the threshold | below the threshold | below the threshold | below the threshold | below the threshold | below the threshold | below the threshold | below the threshold | below the threshold | below the threshold | below the threshold | pKd [21]: below the threshold; pKd [22]: below the threshold; pKd [23]: below the threshold; pKd [24]: below the threshold; pKd [25]: 3.68; pKd [26]: below the threshold |
| YPKQMPLSQV [FZD8, Q9H461] | below the threshold | below the threshold | 3.89 | below the threshold | below the threshold | 4.04 | 4.34 | below the threshold | below the threshold | 4.09 | below the threshold | below the threshold | below the threshold | below the threshold | below the threshold | below the threshold | below the threshold | below the threshold | below the threshold | below the threshold | pKd [21]: below the threshold; pKd [22]: below the threshold; pKd [23]: below the threshold; pKd [24]: 3.7; pKd [25]: below the threshold; pKd [26]: below the threshold |
| AEDEEIQTKM [UNC93A, Q86WB7] | below the threshold | below the threshold | below the threshold | below the threshold | below the threshold | below the threshold | 3.67 | below the threshold | below the threshold | below the threshold | below the threshold | 5.39 | below the threshold | below the threshold | below the threshold | below the threshold | below the threshold | below the threshold | below the threshold | below the threshold | pKd [21]: 3.52; pKd [22]: below the threshold; pKd [23]: 4.16; pKd [24]: below the threshold; pKd [25]: below the threshold; pKd [26]: below the threshold |
| QNRIITKTDV [SMCHD1, A6NHR9] | below the threshold | 3.94 | 4.13 | below the threshold | below the threshold | 3.48 | below the threshold | below the threshold | below the threshold | 4.19 | below the threshold | below the threshold | below the threshold | below the threshold | 3.93 | 3.49 | below the threshold | below the threshold | below the threshold | 4.24 | pKd [21]: below the threshold; pKd [22]: below the threshold; pKd [23]: below the threshold; pKd [24]: 3.64; pKd [25]: below the threshold; pKd [26]: below the threshold |
